In PMC11522930, “2,2-Difluoro Derivatives of Fucose Can Inhibit Cell Surface Fucosylation without Causing Slow Transfer to Acceptors” (JACS Au, 2024):

Substrate: C[C@@H]1O[C@H](OP(=O)(O)OP(=O)(O)OC[C@H]2O[C@@H](n3cnc4c(=O)[nH]c(N)nc43)[C@H](O)[C@@H]2O)[C@@H](O)[C@H](O)[C@@H]1O
Experiment: GDP-Glo glycosyltransferase assay, nonlinear regression
Type: biochemical, Homo sapiens
Details: saturating biantennary N-glycan acceptor 7; 1 h
Description: GDP-Glo glycosyltransferase assay, nonlinear regression on FUT8

B1: FUT8 (Homo sapiens) (protein)
chain: MRPWTGSWRWIMLILFAWGTLLFYIGGHLVRDNDHPDHSSRELSKILAKLERLKQQNEDLRRMAESLRIPEGPIDQGPAIGRVRVLEEQLVKAKEQIENYKKQTRNGLGKDHEILRRRIENGAKELWFFLQSELKKLKNLEGNELQRHADEFLLDLGHHERSIMTDLYYLSQTDGAGDWREKEAKDLTELVQRRITYLQNPKDCSKAKKLVCNINKGCGYGCQLHHVVYCFMIAYGTQRTLILESQNWRYATGGWETVFRPVSETCTDRSGISTGHWSGEVKDKNVQVVELPIVDSLHPRPPYLPLAVPEDLADRLVRVHGDPAVWWVSQFVKYLIRPQPWLEKEIEEATKKLGFKHPVIGVHVRRTDKVGTEAAFHPIEEYMVHVEEHFQLLARRMQVDKKRVYLATDDPSLLKEAKTKYPNYEFISDNSISWSAGLHNRYTENSLRGVILDIHFLSQADFLVCTFSSQVCRVAYEIMQTLHPDASANFHSLDDIYYFGGQNAHNQIAIYAHQPRTADEIPMEPGDIIGVAGNHWDGYSKGVNRKLGRTGLYPSYKVREKIETVKYPTYPEAEK
notes: isolated enzyme; construct not described in main text
With B1 the Km was 33.8 ± 2.5 µM.
